Drawing on article doi:10.1101/2021.05.06.441046, this text covers stoichiometry N for one substance.

The target in this assay is VFLIP_D614G spike with Foldon and purification tags enzymatically removed (SARS-CoV-2) (UniProt P0DTC2). Nature of the assay: cryo-EM structure.

As a reminder, the stoichiometry N is a count of units in the complex or per binding partner. Regarding “HLX70 Fab (Fab from HLX70, a humanized pan-coronavirus mAb)”, the stoichiometry N is 3 Fab:spike.
